In US20160319321:
Where “and” joins values, the source holds several entries; their conditions need not be identical. Identical values can stand only once.

Key:
[1] = molecular target: T1, Lys(Dnp)-DFGDR-HAEGT-Lys(Abz)amide
T1 chain: KDFGDRHAEGTK

[2] = molecular target: T2, Lys(Dnp)-DSGDR-HSQGT-Lys(Abz)amide
T2 chain: KDSGDRHSQGTK

[3] = molecular target: T3, Lys(Dnp)-EHGDR-HGEGT-Lys(Abz)amide
T3 chain: KEHGDRHGEGTK

[4] = molecular target: T4, Lys(Dnp)-DEGDR-HAEGT-Lys(Abz)amide
T4 chain: KDEGDRHAEGTK

[5] = molecular target: T5, DVKPGQPLEDDDDK-[Arg34]GLP-1(9-37)
T5 chain: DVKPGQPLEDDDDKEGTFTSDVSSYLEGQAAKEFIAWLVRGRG

[6] = molecular target: T6, Lys(Dnp)-DDGDR-HAEGT-Lys(Abz)amide
T6 chain: KDDGDRHAEGTK

[7] = molecular target: T7, Lys(Dnp)-NEGDR-HAEGT-Lys(Abz)amide
T7 chain: KNEGDRHAEGTK

[8] = molecular target: T8, Lys(Dnp)-DQGDR-EGTFT-Lys(Abz)amide
T8 chain: KDQGDREGTFTK

B1: bovine Enterokinase light chain variant (C112A, L134K, I135K) (protein)
chain: IVGGSDSREGAWPWVVALYFDDQQVCGASLVSRDWLVSAAHCVYGRNMEPSKWKAVLGLHMASNLTSPQIETRLIDQIVINPHYNKRRKNNDIAMMHLEMKVNYTDYIQPIALPEENQVFPPGRICSIAGWGAKKYQGSTADVLQEADVPLLSNEKCQQQMPEYNITENMVCAGYEAGGVDSCQGDSGGPLMCQENNRWLLAGVTSFGYQCALPNRPGVYARVPRFTEWIQSFLH
Protein B1 has an Activity (%) [1] of 550%, an Activity (%) [2] of 200% and an Activity (%) [3] of 491%. For the same protein, the Activity (%) [4] was 1100% and 942%, the Activity (%) [5] was 100% and the Activity (%) [6] was 604% and 601%. It also gave an Activity (%) [7] of 457% and an Activity (%) [8] of 412%.
